This is an account of results in US20250289905A1 (MIRIMGENE, published 2025).

Where a chain is given by its changes, count along the chain named. Names and notes keep the numbering of the source.

T1: rat-derived WARS1 recombinant protein (rat, UniProt Q6P7B0 1-481, limits assumed)
T1 construct: Recombinant, His-tagged (detected with anti-His tag antibody); construct not described; also called rat WARS1
T1 sequence (looked up): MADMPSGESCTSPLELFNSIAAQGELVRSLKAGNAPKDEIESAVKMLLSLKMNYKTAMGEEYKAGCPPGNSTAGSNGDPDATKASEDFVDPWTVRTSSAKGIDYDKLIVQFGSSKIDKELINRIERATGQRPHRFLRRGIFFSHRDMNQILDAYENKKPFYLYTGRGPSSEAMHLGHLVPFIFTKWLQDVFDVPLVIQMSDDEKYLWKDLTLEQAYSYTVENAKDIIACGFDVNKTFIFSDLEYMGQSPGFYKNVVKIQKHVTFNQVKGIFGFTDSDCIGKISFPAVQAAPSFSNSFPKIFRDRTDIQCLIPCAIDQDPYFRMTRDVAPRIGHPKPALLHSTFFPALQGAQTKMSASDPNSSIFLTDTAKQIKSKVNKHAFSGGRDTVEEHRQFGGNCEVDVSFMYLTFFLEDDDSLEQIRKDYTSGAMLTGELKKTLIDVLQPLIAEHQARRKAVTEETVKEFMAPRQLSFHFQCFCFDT

T2: human WARS1 recombinant protein (human, UniProt P23381 2-471, limits assumed)
T2 sequence: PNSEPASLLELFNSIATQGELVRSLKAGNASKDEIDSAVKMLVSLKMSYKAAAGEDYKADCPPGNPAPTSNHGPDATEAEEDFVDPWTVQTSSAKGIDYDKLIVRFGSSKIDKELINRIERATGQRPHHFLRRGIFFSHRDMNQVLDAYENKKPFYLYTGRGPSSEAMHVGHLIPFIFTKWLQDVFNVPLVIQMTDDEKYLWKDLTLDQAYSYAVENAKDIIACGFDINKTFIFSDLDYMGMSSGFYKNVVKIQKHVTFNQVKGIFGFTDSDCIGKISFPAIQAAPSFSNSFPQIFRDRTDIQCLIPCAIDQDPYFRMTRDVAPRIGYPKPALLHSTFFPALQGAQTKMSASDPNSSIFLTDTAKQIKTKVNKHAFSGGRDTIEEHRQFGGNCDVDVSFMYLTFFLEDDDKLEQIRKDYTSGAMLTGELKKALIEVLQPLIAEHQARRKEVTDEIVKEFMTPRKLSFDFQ

T3: pig-derived WARS1 recombinant protein (pig) (UniProt K9IVV5)
T3 sequence: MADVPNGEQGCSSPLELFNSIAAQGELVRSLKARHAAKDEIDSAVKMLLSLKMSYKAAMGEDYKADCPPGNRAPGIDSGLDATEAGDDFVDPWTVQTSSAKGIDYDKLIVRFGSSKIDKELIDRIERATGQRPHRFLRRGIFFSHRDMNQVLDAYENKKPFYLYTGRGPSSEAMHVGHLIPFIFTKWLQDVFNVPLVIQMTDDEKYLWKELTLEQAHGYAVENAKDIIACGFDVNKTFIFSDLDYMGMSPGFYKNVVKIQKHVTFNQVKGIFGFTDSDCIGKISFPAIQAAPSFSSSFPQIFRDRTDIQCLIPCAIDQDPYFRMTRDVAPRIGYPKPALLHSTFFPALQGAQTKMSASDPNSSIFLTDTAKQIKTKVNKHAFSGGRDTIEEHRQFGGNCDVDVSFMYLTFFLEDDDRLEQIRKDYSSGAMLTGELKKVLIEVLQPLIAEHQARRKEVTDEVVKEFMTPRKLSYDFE

T4: mouse-derived WARS1 recombinant protein (mouse, UniProt P32921 1-481, limits assumed)
T4 construct: Recombinant, His-tagged (detected with anti-His tag antibody); construct not described; In the western blot also secreted WARS1 from J774A.1 supernatant and mouse serum; also called mouse WARS1
T4 sequence (looked up): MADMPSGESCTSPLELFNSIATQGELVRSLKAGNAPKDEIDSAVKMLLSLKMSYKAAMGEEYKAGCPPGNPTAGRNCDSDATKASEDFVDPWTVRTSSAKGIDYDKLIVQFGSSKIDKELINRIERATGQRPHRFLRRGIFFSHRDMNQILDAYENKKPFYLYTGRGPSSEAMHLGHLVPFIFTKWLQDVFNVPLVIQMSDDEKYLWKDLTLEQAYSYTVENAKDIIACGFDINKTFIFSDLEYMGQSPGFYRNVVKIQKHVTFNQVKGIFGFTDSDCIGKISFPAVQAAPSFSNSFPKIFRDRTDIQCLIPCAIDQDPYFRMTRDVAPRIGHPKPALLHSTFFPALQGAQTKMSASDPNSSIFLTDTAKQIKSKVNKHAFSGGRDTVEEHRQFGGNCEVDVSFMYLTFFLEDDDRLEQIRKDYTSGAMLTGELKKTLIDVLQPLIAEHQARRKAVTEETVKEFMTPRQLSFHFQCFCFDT

B1: GKB101 (antibody, V domains shown)
VH: EVQLLESGGGLVQPGGSLRLSCAASGFTFSSYDMSWVRQAPGKGLEWVSAISSGGSSIYYADSVKGRFTISRDNSKNTLYLQMNSLRAEDTAVYYCARDVAWDMLGDFDYWGQGTLVTVSS
VL: QSVLTQPPSASGTPGQRVTISCTGSSSNIGSNYVYWYQQLPGTAPKLLIYANSHRPSGVPDRFSGSKSGTSASLAISGLRSEDEADYYCGAWDDSLSAYVFGGGTKLTVLT
notes: Parent antibody; expressed in Expi293 cells; also called GKB101 antibody; anti-WARS1 antibody
B2: SH/IL (antibody, V domains shown)
VH: B1 VH
VL: B1 VL with S53I, H54L
notes: L-CDR2 variant of GKB101; also called SH/IL antibody
B3: S53L (antibody, V domains shown)
VH: B1 VH
VL: B1 VL with S53L
notes: L-CDR2 variant of GKB101; also called S53L antibody
B4: S53I (antibody, V domains shown)
VH: B1 VH
VL: B1 VL with S53I
notes: L-CDR2 variant of GKB101; also called S53I antibody
B5: S53T (antibody, V domains shown)
VH: B1 VH
VL: B1 VL with S53T
notes: L-CDR2 variant of GKB101; also called S53T antibody
B6: H54F (antibody, V domains shown)
VH: B1 VH
VL: B1 VL with H54F
notes: L-CDR2 variant of GKB101; also called H54F antibody
B7: SH/LL (antibody, V domains shown)
VH: B1 VH
VL: B1 VL with S53L, H54L
notes: L-CDR2 variant of GKB101; also called SH/LL antibody
B8: H54I (antibody, V domains shown)
VH: B1 VH
VL: B1 VL with H54I
notes: L-CDR2 variant of GKB101; also called H54I antibody
B9: S53Q (antibody, V domains shown)
VH: B1 VH
VL: B1 VL with S53Q
notes: L-CDR2 variant of GKB101; also called S53Q antibody
B10: H54K (antibody, V domains shown)
VH: B1 VH
VL: B1 VL with H54K
notes: L-CDR2 variant of GKB101; also called H54K antibody; M105A
B11: S53V (antibody, V domains shown)
VH: B1 VH
VL: B1 VL with S53V
notes: L-CDR2 variant of GKB101; also called S53V antibody
B12: H54Q (antibody, V domains shown)
VH: B1 VH
VL: B1 VL with H54Q
notes: L-CDR2 variant of GKB101; also called H54Q antibody
B13: H54L (antibody, V domains shown)
VH: B1 VH
VL: B1 VL with H54L
notes: L-CDR2 variant of GKB101; also called H54L antibody
B14: SH/QL (antibody, V domains shown)
VH: B1 VH
VL: B1 VL with S53Q, H54L
notes: L-CDR2 variant of GKB101; also called SH/QL antibody

The first test addresses T1, rat-derived WARS1 recombinant protein. In words: western blot; recombinant protein. Here is the method: (§1) At this time, a WARS1 recombinant protein (human, mouse, pig, marmoset (NHP), or rat-derived), cell culture medium, and human or mouse serum were used as WARS1 protein samples. In particular, the cell culture medium was used by treating the human monocyte cell line, THP-1, or the mouse macrophage cell line, J774.1A, with LPS (lipopolysaccharide, 100 ng/ml) for 24 hours to induce an inflammatory response, and then the cell culture supernatant was obtained for use.
(§2) 30 μg of each of the WARS1 recombinant protein (human, mouse, pig, marmoset (NHP), or rat-derived), the cell supernatant obtained using the method above, and mouse or human serum was loaded onto 8% SDS-PAGE, then transferred to a PVDF membrane (Millipore). Afterwards, the membrane was reacted with 1 μg/ml of GKB101 or a variant antibody thereof for 1 hour each, then washed with TBST (TBS+Tween20) three times. Afterwards, it was reacted with a secondary antibody (anti-human IgG HRP, Millipore) for 1 hour, then washed with TBST three times to be treated with ECL (West® bright ECL, Advanta) to identify its protein expression (LAS-4000, Fujifilm).
For orientation: A western blot detects proteins with antibodies after separation by electrophoresis.
B1: the binding result was “binds”.
On the same count and under the same terms, the result for B2 reads “binds”; that for B3, “binds”; that for B4, “binds”.
B5: the binding result is “binds”.
Still for that read-out and setting: the result for B6 reads “binds”; that for B7, “binds”; that for B8, “binds”.

For a further test, the target named is T2, human WARS1 recombinant protein. Nature of the test: cell-based or functional assay.
B1: the “secretion of TNF-α in mouse macrophage J774A.1 cells” value was ≥ 40%.
The same measure, in the same setting: the result for B9 reads ≥ 40%; that for B3, ≥ 40%.
Same read-out and setting: the same measure for B4: ≥ 40%; for B10: ≥ 40%.

The next test has as its target T3, pig-derived WARS1 recombinant protein (pig). In words: direct ELISA. (An ELISA detects its analyte on a solid surface through an enzyme-linked reagent.)
A word on the Kd: it is the free concentration of one partner at which half of the binding sites on the other are occupied at equilibrium, for simple one-to-one binding. Take B9: the dissociation constant Kd is 1000 pM.
With B3, the Kd came out at 1000 pM.
The same measure, in the same setting: the same measure for B10: 1000 pM.
Same read-out and setting: the result for B11 reads 1000 pM.
For B12, the Kd is 1000 pM.

The target in a further test is T2, human WARS1 recombinant protein. In words: western blot; recombinant protein, THP-1 culture supernatant, human serum. Here is the method: as §1, §2
In the case of B2, the binding result is on record as “binds”.
The same measure, in the same setting: the result for B11 reads “binds”; that for B5, “binds”.
Same read-out and setting: the same measure for B6: “binds”; for B13: “binds”; for B12: “binds”.
Same read-out and setting: the result for B7 reads “binds”.
B8: the binding result is reported as “binds”.

In another test the target is T4, mouse-derived WARS1 recombinant protein. Nature of the test: western blot; recombinant protein, J774A.1 culture supernatant, mouse serum. The method, then:
as §1, §2
With B1, the binding result is “binds”.
For B2, the binding result was “binds”.
Same read-out and setting: the same measure for B3: “binds”.
Same read-out and setting: the result for B4 reads “binds”; that for B5, “binds”.
Same read-out and setting: the same measure for B6: “binds”; for B13: “binds”; for B7: “binds”.
Turning to B8, the binding result is recorded as “binds”.

The target of the next test is T1, rat-derived WARS1 recombinant protein. In words: direct ELISA. Here is the method: (§3) Specifically, for direct ELISA, a 96-well plate (Maxisorp, Thermo Fisher) was coated with WARS1 having a 1 μg/ml concentration of a recombinant protein derived from human, marmoset (NHP), mouse, rat, and pig, and then blocked with PBS containing 1% BSA at room temperature for 1 hour. The GKB101 antibody or a variant antibody thereof was diluted in a concentration-dependent manner, added to each coated well, reacted at room temperature for 1 hour, and then washed four times with PBST (PBS+Tween20). Each well was treated and reacted for 1 hour with an antibody (anti-Human IgG, cell signaling) to which HRP is attached, and then washed with PBST. Lastly, after developing with a TMB substrate (BD), its absorbance was measured at 490 nm (NIVO) (FIGS. 4a to 5).
Consider B9, for which the equilibrium dissociation constant (Kd) was ~1 pM.
The same measure, in the same setting: the same measure for B10: ~1 pM.
The same measure, in the same setting: the result for B11 reads ~1 pM; that for B14, ~1 pM.
Regarding B13, the equilibrium dissociation constant (Kd) is ~1 pM.
Still for that read-out and setting: the same measure for B12: ~1 pM.

In a further test the target is T2, human WARS1 recombinant protein. In words: direct ELISA. Here is the method: as §3
In the case of B9, the dissociation constant (Kd) was ~1 pM.
With B10, the dissociation constant Kd is ~1 pM.
The same measure, in the same setting: the same measure for B14: ~1 pM.

In the next test the target is T4, mouse-derived WARS1 recombinant protein. In words: direct ELISA. Here is the method:
as §3
Turning to B9, the Kd is ~1 pM.
The same measure, in the same setting: the result for B10 reads ~1 pM; that for B11, ~1 pM.
Still for that read-out and setting: the same measure for B14: ~1 pM; for B12: ~1 pM.
